Here are results for one molecule from patent publication US12077795B2, “Method for biocatalytic protein-oligonucleotide conjugation” (The Research Foundation for The State University of New York, priority 2016, dated 2024).

Where only a bound is given, the exact number is not on record here.

For this experiment, the system named is heterologous proteins fused to HST-I. Briefly: HST-I catalysed protein conjugation (optical assay to monitor HST-I). It counts as biochemical, Drosophila melanogaster. Here is the method: Using an optical assay developed to monitor HST-I, heterologous proteins can be covalently modified at their C-terminus by cholesterol with a t1/2 of 10-20 min at pH 7.1, 25 degrees Celsius.

B1: HST-I: ~26 kDa autocatalytic C-terminal segment of the Hedgehog precursor from Drosophila melanogaster, SEQ ID NO.: 001 (protein)
chain: GCFTPESTALLESGVRKPLGELSIGDRVLSMTANGQAVYSEVILFMDRNLEQMQNFVQLHTDGGAVLTVTPAHLVSVWQPESQKLTFVFADRIEEKNQVLVRDVETGELRPQRVVKVGSVRSKGVVAPLTREGTIVVNSVAASCYAVINSQSLAHWGLAPMRLLSTLEAWLPAKEQLHSSPKVVSSAQQQNGIHWYANALYKVKDYVLPQSWRHD
modifications: Drosophila melanogaster
In the case of B1, the “time for protein conjugation” value (in the absence of accessory proteins) was below 60 min. Also, where the note is “physiological buffer, room temperature”, the “half time of conjugation” value is recorded as at most 1 h.
